This is an account of results in publication PMC8013792, “Bacterial protein domains with a novel Ig‐like fold target human CEACAM receptors” (The EMBO Journal, 2021).

B1: IgSF (IgI3) domain of β protein, recombinant, biotinylated [modified: biotin, C-terminal] [Streptococcus agalactiae (GBS)] / recombinant CEACAM1 N-terminal domain, unglycosylated, 6xHis tagged [human] (parent)
chain 1: MAQLTTESMPFNVAEGKEVLLLVHNLPQQLFGYSWYKGERVDGNRQIVGYAIGTQQATPGPANSGRETIYPNASLLIQNVTQNDTGFYTLQVIKSDLVNEEATGQFHVY
chain 2: ANENNQQKIELTVSPENITVYEGEDVKFTVTAKSDSKTTLDFSDLLTKYNPSVSDRISTNYKTNTDNHKIAEITIKNLKLNESQTVTLKAKDDSGNVVEKTFTITVQKKEEKQLPSTGGS

This test covers variants of B1. Description: flow cytometry on coated dynabeads. To be noted: with recombinant CEACAM1 N-terminal domain, parent: 390, read off a plot. On the technique in general: In flow cytometry, cells or beads pass a laser one at a time.
Turning to chain 2 ANENNQQKIELTVSPENITVYEGEDVKFTVTAKSDSKTTLDFSDLLTKYNPAVSDRISTNYKTNTDNHKIAEITIKNLKLNESQTVTLKAKDDSGNVVEKTFTITVQKKEEKQLPSTGGS [chain 2 S52A], the response (Geometric MFI) amounted to 320.
The value for chain 2 ANENNQQKIELTVSPENITVYEGEDVKFTVTAKSDSKTTLDFSDALTKYNPSVSDRISTNYKTNTDNHKIAEITIKNLKLNESQTVTLKAKDDSGNVVEKTFTITVQKKEEKQLPSTGGS [chain 2 L45A] was 350.
